Values of other authors, collected in patent US5654276A, “Peptides and compounds that bind to the IL-5 receptor” (Affymax Technologies N.V., priority 1995, dated 1997).

Target: T1, human IL-5 receptor (Homo sapiens, UniProt Q01344)
T1 construct: host or cells: HL60 subclone induced towards eosinophil differentiation with sodium butyrate (endogenous receptor)
T1 sequence (Q01344 21-420): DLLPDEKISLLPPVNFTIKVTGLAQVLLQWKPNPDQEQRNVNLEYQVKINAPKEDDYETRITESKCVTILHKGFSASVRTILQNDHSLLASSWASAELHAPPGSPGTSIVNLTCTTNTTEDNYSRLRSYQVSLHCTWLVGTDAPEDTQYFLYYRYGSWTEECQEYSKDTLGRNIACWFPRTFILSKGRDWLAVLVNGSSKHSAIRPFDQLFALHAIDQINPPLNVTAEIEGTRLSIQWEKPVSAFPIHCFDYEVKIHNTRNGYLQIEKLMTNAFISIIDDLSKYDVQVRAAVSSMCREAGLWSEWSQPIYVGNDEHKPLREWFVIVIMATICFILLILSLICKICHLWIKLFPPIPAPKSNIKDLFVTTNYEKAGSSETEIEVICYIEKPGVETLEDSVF
T1 sequence (P32927 17-897 partner): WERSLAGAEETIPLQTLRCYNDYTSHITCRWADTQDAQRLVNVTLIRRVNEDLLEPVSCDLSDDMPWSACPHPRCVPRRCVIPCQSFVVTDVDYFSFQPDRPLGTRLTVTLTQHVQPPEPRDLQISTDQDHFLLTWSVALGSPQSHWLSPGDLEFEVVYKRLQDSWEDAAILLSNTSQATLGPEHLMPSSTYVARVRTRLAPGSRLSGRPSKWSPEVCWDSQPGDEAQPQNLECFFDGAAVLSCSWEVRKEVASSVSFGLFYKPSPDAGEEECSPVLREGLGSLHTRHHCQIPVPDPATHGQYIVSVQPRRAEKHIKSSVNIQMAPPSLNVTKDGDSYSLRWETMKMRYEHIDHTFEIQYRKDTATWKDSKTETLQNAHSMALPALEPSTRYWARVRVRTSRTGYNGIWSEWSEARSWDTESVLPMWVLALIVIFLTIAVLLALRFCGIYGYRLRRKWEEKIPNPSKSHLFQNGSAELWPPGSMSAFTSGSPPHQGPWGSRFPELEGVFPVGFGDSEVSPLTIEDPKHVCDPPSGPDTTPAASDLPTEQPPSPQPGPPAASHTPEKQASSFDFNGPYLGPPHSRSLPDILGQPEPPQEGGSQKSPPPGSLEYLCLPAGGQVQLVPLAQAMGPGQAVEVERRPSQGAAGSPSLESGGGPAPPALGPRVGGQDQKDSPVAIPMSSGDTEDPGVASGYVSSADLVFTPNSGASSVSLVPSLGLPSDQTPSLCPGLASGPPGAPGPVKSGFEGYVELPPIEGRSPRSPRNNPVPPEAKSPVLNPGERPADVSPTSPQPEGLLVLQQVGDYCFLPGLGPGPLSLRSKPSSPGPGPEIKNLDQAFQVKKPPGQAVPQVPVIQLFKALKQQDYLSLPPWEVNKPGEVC
Conditions: HL60 subclone, eosinophilic differentiation initiated with sodium butyrate; read-out: Kd of IL-5 binding sites

In the case of “IL-5: lymphokine secreted by T cells and mast cells having biological activities on B cells and eosinophils”, the Kd is given as 0.03 nM.
